Entries after “also recorded” stand apart in the source; their conditions may differ.
What was measured:
non-skeletal vasculature = conditions: mouse, in vivo, iv
[1] = test system: bone marrow-derived endothelial cells; test: Flow cytometry of CD31hiEMCNhi endothelial cells in EPOC cultures; assay type: cell-based, mouse; conditions: cultures of EPOCs
Experimental: Femur and tibia were dissected from mutant mice and control groups after removing surrounding connective tissues. The metaphysis region and diaphysis regions of bone was crushed in Hanks Balanced Salt Solution (Life Technologies) containing 10 mM HOPES (pH 7.2) (CellGro) and enzymatically digested with 2.5 mg/mL Collagenase A (Roche) and 1 unit/mL Dispase II (Roche) for 15 minutes at 37° C. under gentle agitation. The resulting cell suspensions were filtered (40 μm), washed using PBS (pH 7.2) containing 0.5% BSA (Fraction V) and 2 mM EDTA. […] After washing, cells were resuspended in PBS (pH 7.2) with 2 mM EDTA and 1 μg/mL 4-6,Diamidino-2-Phenylindole (DAPI) (live/dead exclusion) for analysis on an LSRII flow cytometer system (BD Biosciences) cytometer and analyzed using FlowJo software (TreeStar). […]
Mouse bone marrow derived late-stage endothelial progenitor outgrowth cells (EPOCs) were obtained from BioChain (7030031) and cultured in growth medium (BioChain Z7030035) as described previously (Xie et al. 2014). […] The cell numbers were quantified by counting a centered microscope field per each filter (5 wells for each condition). […] The width of the wound area was quantitatively evaluated using ImageJ (see website at rsb.info.uih.gov/ij/download.html). […]

[2] = test system: bone marrow endothelial progenitor outgrowth cells (EPOCs); test: Matrigel tube formation assay; assay type: cell-based, mouse; conditions: for tube formation (tube branch numbers): EPOCs on Matrigel
Experimental: Mouse bone marrow derived late-stage endothelial progenitor outgrowth cells (EPOCs) were obtained from BioChain (7030031) and cultured in growth medium (BioChain Z7030035) as described previously (Xie et al. 2014). Endothelial cell migration assay was set up in Trans well-24 well plates with 8-um pore filters. Briefly, 1×10^5 cells/well after 1-hour serum starvation were seeded in the upper chamber, then incubated with conditioned medium from osteoblasts and control in the lower chambers for a further 3 h. The cells in the upper surface of each filter were removed with cotton swabs. The cells that migrated into the lower surface were fixed with 4% PFA for 30 min and then stained with crystal violet. The cell numbers were quantified by counting a centered microscope field per each filter (5 wells for each condition). Endothelial cell wound healing assays were conducted in 12-well plates precoated with gelatin (Stemcell Technologies). 3×10^5 cells/well were plated overnight and stimulated with a wound in the form of a single linear scratch made with a yellow pipette tip. After gently washing the well twice, cells were cultured in medium with SLIT3 or vehicle. At 6 and 12 hours after injury, cells were stained by 0.5% crystal violet and photographed. The width of the wound area was quantitatively evaluated using ImageJ (see website at rsb.info.uih.gov/ij/download.html). Endothelial cell proliferation assays were conducted in 96-well plates pre-coated with gelatin (Stemcell Technologies). EPOCs (3×10^4 cells/well) were seeded in the medium with a serial dilution of SLIT3 protein or vehicle in plates. At 0, 24, 48 hours after seeding, cells were incubated with 10-fold diluted Alamar Blue solution (Thermo Fisher) and the supernatant was evaluated with a spectrophotometer (Thermo) (5 wells for each condition). Endothelial cell tube formation assay was conducted in 96-well plates pre-coated with Matrigel (BD). After 1 h serum starvation, EPOCs (3×10^4 cells/well) were seeded in conditioned medium dilution or control medium on polymerized Matrigel in plates. Alter 5 hours incubation at 37° C., the number of tube branches each well was observed and quantified by counting four random fields per well with microscopy (5 wells for each condition).

[3] = test system: bone marrow macrophages (BMMs); test: In vitro osteoclast formation assay with RANKL and recombinant SLIT3; assay type: cell-based, mouse
Experimental: Murine bone marrow cells were flushed from the femur and tibia of mice and cultured in petri dishes in α-MEM medium with 10% FBS and 20 ng/ml of rM-CSF. Nonadherent cells were replated into tissue culture dishes and cultured in the same medium for 3 d to obtain osteoclast precursors. The osteoclast precursors then differentiated into osteoclasts in the presence of human RAMKL (50 ng/ml; PeproTech) and M-CSF for 3 days. Peripheral blood mononuclear cells from the whole blood of healthy volunteers were isolated by density gradient centrifugation using Ficoll (Invitrogen, Carlsbad, Calif.). CD14-positive cells were purified from fresh PBMCs using anti-CD14 magnetic beads (Miltenyi Biotec, Auburn, Calif.), as recommended by the manufacturer. Human monocytes were cultured in a-MEM with 10% FBS in the presence of M-CSF (20 ng/ml; PeproTech, Rocky Hill, N.J.) for 2 d to obtain monocyte-derived macrophages. Experiments with human cells were approved by the Hospital for Special Surgery Institutional Review Board.
Osteoclast culture, differentiation assays. Western Molting and qPCR. In vitro primary osteoclast cultures, quantitative PCR, Western blotting, and TRAP staining were performed as previously described. Primary antibodies were specific for SLIT3. (1:1,000; Cell Signaling) and HSP90 (1:2,000; Sigma).

[4] = test system: bone marrow endothelial progenitor outgrowth cells (EPOCs); test: Endothelial cell wound healing (migration) assay; assay type: cell-based, mouse
Experimental: Mouse bone marrow derived late-stage endothelial progenitor outgrowth cells (EPOCs) were obtained from BioChain (7030031) and cultured in growth medium (BioChain Z7030035) as described previously (Xie et al. 2014). Endothelial cell migration assay was set up in Trans well-24 well plates with 8-um pore filters. Briefly, 1×10^5 cells/well after 1-hour serum starvation were seeded in the upper chamber, then incubated with conditioned medium from osteoblasts and control in the lower chambers for a further 3 h. The cells in the upper surface of each filter were removed with cotton swabs. The cells that migrated into the lower surface were fixed with 4% PFA for 30 min and then stained with crystal violet. The cell numbers were quantified by counting a centered microscope field per each filter (5 wells for each condition). […] The width of the wound area was quantitatively evaluated using ImageJ (see website at rsb.info.uih.gov/ij/download.html). […] At 0, 24, 48 hours after seeding, cells were incubated with 10-fold diluted Alamar Blue solution (Thermo Fisher) and the supernatant was evaluated with a spectrophotometer (Thermo) (5 wells for each condition). […] Alter 5 hours incubation at 37° C., the number of tube branches each well was observed and quantified by counting four random fields per well with microscopy (5 wells for each condition).

[5] = test system: bone marrow endothelial cells; test: Immunoblot of YAP, AKT and ERK phosphorylation after SLIT3 treatment; assay type: cell-based, mouse
Experimental: Western blot analysis was performed according to a previously described standard protocol. (Greenblatt et al. 2016) Primary antibodies were specific for SLIT3 (1:500; R&D Systems, AF3629), ROBO1 (1:500; Abeam, ab7279), ROBO2 (1:1000; Abcam, ab75014), YAP (1:1,000; Cell Signaling, 4912), p-YAP (1:1,000; Cell signaling, 4911), AKT (1:1,000; Cell Signaling, 4691), p-AKT (1:1,000; Cell Signaling, 4060), ERK (1:1,000; Cell Signaling, 9102), p-ERK (1:1,000; Cell Signaling, 9101) and beta-actin (1:5,000, sc-47778, Santa Cruz) or Hsp90 (1:1000; sc-13119, Santa Cruz). Secondary anti-mouse/rabbit HRP-conjugated antibodies were subsequently applied.

[6] = test system: murine ovariectomy (OVX) model of postmenopausal osteoporosis; test: Ovariectomy (OVX) induced bone loss, therapeutic model after osteopenia onset; assay type: in vivo, mouse
[7] = EPOCs transduced with Robo1 shRNA
[8] = treatment initiated eight weeks after OVX

B1: SLIT3: SLIT3 recombinant protein (R&D); secreted ligand of ROBO receptors (protein, UniProt O75094 34-1523, looked up)
Slit homolog 3 protein: CPTKCTCSAASVDCHGLGLRAVPRGIPRNAERLDLDRNNITRITKMDFAGLKNLRVLHLEDNQVSVIERGAFQDLKQLERLRLNKNKLQVLPELLFQSTPKLTRLDLSENQIQGIPRKAFRGITDVKNLQLDNNHISCIEDGAFRALRDLEILTLNNNNISRILVTSFNHMPKIRTLRLHSNHLYCDCHLAWLSDWLRQRRTVGQFTLCMAPVHLRGFNVADVQKKEYVCPAPHSEPPSCNANSISCPSPCTCSNNIVDCRGKGLMEIPANLPEGIVEIRLEQNSIKAIPAGAFTQYKKLKRIDISKNQISDIAPDAFQGLKSLTSLVLYGNKITEIVKGLFDGLVSLQLLLLNANKINCLRVNTFQDLQNLNLLSLYDNKLQTISKGLFAPLQSIQTLHLAQNPFVCDCHLKWLADYLQDNPIETSGARCSSPRRLANKRISQIKSKKFRCSGSEDYRSRFSSECFMDLVCPEKCRCEGTIVDCSNQKLVRIPSHLPEYVTDLRLNDNEVSVLEATGIFKKLPNLRKINLSNNKIKEVREGAFDGAASVQELMLTGNQLETVHGRVFRGLSGLKTLMLRSNLIGCVSNDTFAGLSSVRLLSLYDNRITTITPGAFTTLVSLSTINLLSNPFNCNCHLAWLGKWLRKRRIVSGNPRCQKPFFLKEIPIQDVAIQDFTCDGNEESSCQLSPRCPEQCTCMETVVRCSNKGLRALPRGMPKDVTELYLEGNHLTAVPRELSALRHLTLIDLSNNSISMLTNYTFSNMSHLSTLILSYNRLRCIPVHAFNGLRSLRVLTLHGNDISSVPEGSFNDLTSLSHLALGTNPLHCDCSLRWLSEWVKAGYKEPGIARCSSPEPMADRLLLTTPTHRFQCKGPVDINIVAKCNACLSSPCKNNGTCTQDPVELYRCACPYSYKGKDCTVPINTCIQNPCQHGGTCHLSDSHKDGFSCSCPLGFEGQRCEINPDDCEDNDCENNATCVDGINNYVCICPPNYTGELCDEVIDHCVPELNLCQHEAKCIPLDKGFSCECVPGYSGKLCETDNDDCVAHKCRHGAQCVDTINGYTCTCPQGFSGPFCEHPPPMVLLQTSPCDQYECQNGAQCIVVQQEPTCRCPPGFAGPRCEKLITVNFVGKDSYVELASAKVRPQANISLQVATDKDNGILLYKGDNDPLALELYQGHVRLVYDSLSSPPTTVYSVETVNDGQFHSVELVTLNQTLNLVVDKGTPKSLGKLQKQPAVGINSPLYLGGIPTSTGLSALRQGTDRPLGGFHGCIHEVRINNELQDFKALPPQSLGVSPGCKSCTVCKHGLCRSVEKDSVVCECRPGWTGPLCDQEARDPCLGHRCHHGKCVATGTSYMCKCAEGYGGDLCDNKNDSANACSAFKCHHGQCHISDQGEPYCLCQPGFSGEHCQQENPCLGQVVREVIRRQKGYASCATASKVPIMECRGGCGPQCCQPTRSKRRKYVFQCTDGSSFVEEVERHLECGCLACS
non-skeletal vasculature
  brain ultrastructure: no changes
[1]
  acquisition of CD31hiEMCNhi surface immunophenotype in culture: enhanced the acquisition; also recorded: induces production
[2]
  tube formation (tube branch numbers): enhanced
[2]; listed as Slit3
  tube formation (tube branch numbers): increases with increased Slit3
[2]; [7]
  tube formation capacity in response to ligand after Robo1 knockdown: impaired their response
[2]; EPOCs transduced with YAP shRNA
  ability to induce tube formation after shRNA-mediated knockdown of YAP: significantly reduced the ability
[3]; BMMs with RANKL and recombinant SLIT3, three days
  number of TRAP positive osteoclasts compared with controls: no significant changes
[3]; BMMs with RANKL, three days
  expression of osteoclast marker genes: modestly inhibited
[4]
  migration: enhanced migration
[5]; [7]
  phosphorylation of YAP in response to ligand after Robo1 knockdown: impaired their response
[5]; mouse EPOCs after serum starvation
  signaling pathways downstream of SLIT3 (YAP, AKT, ERK phosphorylation): induces activation of Hippo and ERK MAPK pathway signaling
[6]; IV twice weekly initiated eight weeks after OVX
  bone loss after onset of OVX-induced osteopenia: significantly reversed bone loss; also recorded: therapeutic effects
[6]; [8]
  cortical thickness: increased
  trabecular BV/TV: increased
[6]; treatment initiated eight weeks after OVX, femur
  CD31hiEMCNhi endothelial cells: significantly increased

— patent US20200397860A1, “SLIT AND BONE GROWTH MODULATION” (Cornell University, priority 2018, published 2020)
